# Results from publication PMC9411592.
# Where two headings read alike, the source gives them in different places.
# Tests used:
# [1] = target: N-terminal Flag-tagged LRRC33 with its C-terminal transmembrane domain substituted with that of GARP (WT); assay: flow cytometry on cells; settings: for response: n = 3, mean ± s.d., read off a plot
# [2] = target: N-terminal Flag-tagged LRRC33 with its C-terminal transmembrane domain substituted with that of GARP (WT); assay: flow cytometry on cells; settings: n = 3, mean ± s.d., read off a plot
# [3] = target: L-TGF-β1 WT with the furin cleavage site between LAP and the growth factor replaced with an HA tag (UniProt P01137); assay: flow cytometry on cells
# [4] = target: L-TGF-β1 C4S/R249A (the 'WT' of the SPR assay) (human); assay: SPR; Biacore T200, 25 °C; L-TGF-β1 (C4S/R249A, or + RGEGATG) immobilised on a CM5 chip by amine coupling; integrin headpieces injected at 20 μl/min in 20 mM HEPES pH 7.5, 150 mM NaCl, 1 mM MgCl2, 1 mM CaCl2; 1:1 Langmuir model
# [5] = Expi293F cells co-transfected with L-TGF-β1 and LRRC33, anti-HA staining
other: percentage of L-TGF-β+ (anti-HA+) subset [1],response ([1]; parent: est. 21000),Substance,other results
9.58%,2800 MFI,L-TGF-β1 WT with the furin cleavage site between LAP and the growth factor replaced with an HA tag (from UniProt P01137) H317I,response ([2]; parent: est. 21000): 3600 MFI
,6000 MFI,L-TGF-β1 WT with the furin cleavage site between LAP and the growth factor replaced with an HA tag (from UniProt P01137) H317L,
,16000 MFI,L-TGF-β1 WT with the furin cleavage site between LAP and the growth factor replaced with an HA tag (from UniProt P01137) I300L,
,15000 MFI,L-TGF-β1 WT with the furin cleavage site between LAP and the growth factor replaced with an HA tag (from UniProt P01137) K309R,
,5500 MFI,L-TGF-β1 WT with the furin cleavage site between LAP and the growth factor replaced with an HA tag (from UniProt P01137) K309T,
15.2%,,L-TGF-β1 WT with the furin cleavage site between LAP and the growth factor replaced with an HA tag (from UniProt P01137) K309T; H317L,response ([2]; parent: est. 21000): 3400 MFI
,26000 MFI,L-TGF-β1 WT with the furin cleavage site between LAP and the growth factor replaced with an HA tag (from UniProt P01137) L303A,
,25000 MFI,L-TGF-β1 WT with the furin cleavage site between LAP and the growth factor replaced with an HA tag (from UniProt P01137) L303S,
,16000 MFI,L-TGF-β1 WT with the furin cleavage site between LAP and the growth factor replaced with an HA tag (from UniProt P01137) P296A,
,13000 MFI,L-TGF-β1 WT with the furin cleavage site between LAP and the growth factor replaced with an HA tag (from UniProt P01137) Q306T,
,,L-TGF-β1 WT with the furin cleavage site between LAP and the growth factor replaced with an HA tag (from UniProt P01137) W301A,"other: percentage of L-TGF-β+ (anti-HA+) subset [1, 5]: 28.7%; response ([1]; Expi293F cells, parent: est. 22000): 5300 MFI"
,14000 MFI,L-TGF-β1 WT with the furin cleavage site between LAP and the growth factor replaced with an HA tag (from UniProt P01137) W301R,
12.3%,,L-TGF-β1 WT with the furin cleavage site between LAP and the growth factor replaced with an HA tag (from UniProt P01137) W301R; K309T; H317L,response ([2]; parent: est. 21000): 3500 MFI
,28000 MFI,L-TGF-β1 WT with the furin cleavage site between LAP and the growth factor replaced with an HA tag (from UniProt P01137) Y307H,
44.6%,,L-TGF-β2 WT with HA tag in place of the furin cleavage site (from UniProt P61812) I350H,response ([2]; parent: est. 2800): 11000 MFI
21.5%,,L-TGF-β3 WT with HA tag in place of the furin cleavage site (from UniProt P10600) R328W; T336K; L344H,response ([2]; parent: est. 2700): 5500 MFI
14.4%,,L-TGF-β3 WT with HA tag in place of the furin cleavage site (from UniProt P10600) T336K; L344H,response ([2]; parent: est. 2700): 4000 MFI
,,N-terminal Flag-tagged LRRC33 with its C-terminal transmembrane domain substituted with that of GARP (WT) Y174R,"other: percentage of L-TGF-β+ (anti-HA+) subset [3, 5]: 23.1%; response ([3]; Expi293F cells, n = 3, mean ± s.d., parent: est. 22000, read off a plot): 4000 MFI"
,,integrin αVβ8-6DLL headpiece (the disulfide-linked loop of β8 substituted by that of β6) (complex),Kd [4]: 0.0198 µM
,,αVβ8-IgG1 Fc (heterotetramer of αVβ8 linked by the IgG1 Fc fragment on the C-terminus of β8) (Fc fusion),Kd [4]: 0.00575 µM
